Data as given in patent US20150246136A1 (Bayer, published 2015).
Each block holds one binder with its values, some of them ahead of it.

Target: Mesothelin (SwissProt reference Q13421-3) (Homo sapiens, UniProt Q13421 37-622)
Assay: cell-based or functional assay

B2: Example 80, conjugate of anti-mesothelin antibody MF-Ta (antibody, human IgG1, lambda, V domains shown)
VH: QVELVQSGAEVKKPGESLKISCKGSGYSFTSYWIGWVRQAPGKGLEWMGIIDPGDSRTRYSPSFQGQVTISADKSISTAYLQWSSLKASDTAMYYCARGQLYGGTYMDGWGQGTLVTVSS
VL: DIALTQPASVSGSPGQSITISCTGTSSDIGGYNSVSWYQQHPGKAPKLMIYGVNNRPSGVSNRFSGSKSGNTASLTISGLQAEDEADYYCSSYDIESATPVFGGGTKLTVLG
modifications: toxophore-linker on Cys sulfur, sites not given
IC50 (nM), HT29 meso+ cells, MTT proliferation assay: 4.4 nM

B4: Example 100, conjugate of anti-mesothelin antibody MF-Ta (antibody, human IgG1, lambda, V domains shown)
VH: B2 VH
VL: B2 VL
modifications: toxophore-linker on Cys sulfur, sites not given
IC50 (nM), HT29 meso+ cells, MTT proliferation assay: 2 nM

B5: Example 90, conjugate of anti-mesothelin antibody MF-Ta (antibody, human IgG1, lambda, V domains shown)
VH: B2 VH
VL: B2 VL
modifications: toxophore-linker on Cys sulfur, sites not given
IC50 (nM), HT29 meso+ cells, MTT proliferation assay: 2.6 nM

B6: Example 96, conjugate of anti-mesothelin antibody MF-Ta (antibody, human IgG1, lambda, V domains shown)
VH: B2 VH
VL: B2 VL
modifications: toxophore-linker on Cys sulfur, sites not given
IC50 (nM), HT29 meso+ cells, MTT proliferation assay: 25 nM

B7: Example 81, conjugate of anti-mesothelin antibody MF-Ta (antibody, human IgG1, lambda, V domains shown)
VH: B2 VH
VL: B2 VL
modifications: toxophore-linker on Cys sulfur, sites not given
IC50 (nM), HT29 meso+ cells, MTT proliferation assay: 0.02 nM

B8: Example 104, conjugate of anti-mesothelin antibody MF-Ta (antibody, human IgG1, lambda, V domains shown)
VH: B2 VH
VL: B2 VL
modifications: toxophore-linker on Lys NH, sites not given
IC50 (nM), HT29 meso+ cells, MTT proliferation assay: 1.8 nM

B10: Example 111, conjugate of anti-mesothelin antibody MF-Ta (antibody, human IgG1, lambda, V domains shown)
VH: B2 VH
VL: B2 VL
modifications: toxophore-linker on Cys sulfur, sites not given
IC50 (nM), HT29 meso+ cells, MTT proliferation assay: 0.7 nM

B13: Example 109, conjugate of anti-mesothelin antibody MF-Ta (antibody, human IgG1, lambda, V domains shown)
VH: B2 VH
VL: B2 VL
modifications: toxophore-linker on Cys sulfur, sites not given
IC50 (nM), HT29 meso+ cells, MTT proliferation assay: 0.09 nM

B14: Example 93, conjugate of anti-mesothelin antibody MF-Ta (antibody, human IgG1, lambda, V domains shown)
VH: B2 VH
VL: B2 VL
modifications: toxophore-linker on Lys NH, sites not given
IC50 (nM), HT29 meso+ cells, MTT proliferation assay: 52 nM

B17: Example 73, conjugate of anti-mesothelin antibody MF-Ta (antibody, human IgG1, lambda, V domains shown)
VH: B2 VH
VL: B2 VL
modifications: toxophore-linker on Cys sulfur, sites not given
IC50 (nM), HT29 meso+ cells, MTT proliferation assay: 25 nM

B18: Example 74, conjugate of anti-mesothelin antibody MF-Ta (antibody, human IgG1, lambda, V domains shown)
VH: B2 VH
VL: B2 VL
modifications: toxophore-linker on Cys sulfur, sites not given
IC50 (nM), HT29 meso+ cells, MTT proliferation assay: 9 nM

B20: Example 103, conjugate of anti-mesothelin antibody MF-Ta (antibody, human IgG1, lambda, V domains shown)
VH: B2 VH
VL: B2 VL
modifications: toxophore-linker on Cys sulfur, sites not given
IC50 (nM), HT29 meso+ cells, MTT proliferation assay: 10 nM

B21: Example 86, conjugate of anti-mesothelin antibody MF-Ta (antibody, human IgG1, lambda, V domains shown)
VH: B2 VH
VL: B2 VL
modifications: toxophore-linker on Cys sulfur, sites not given
IC50 (nM), HT29 meso+ cells, MTT proliferation assay: 0.45 nM

B23: Example 76, conjugate of anti-mesothelin antibody MF-Ta (antibody, human IgG1, lambda, V domains shown)
VH: B2 VH
VL: B2 VL
modifications: toxophore-linker on Cys sulfur, sites not given
IC50 (nM), HT29 meso+ cells, MTT proliferation assay: 0.35 nM

B25: Example 113, conjugate of anti-mesothelin antibody MF-Ta (antibody, human IgG1, lambda, V domains shown)
VH: B2 VH
VL: B2 VL
modifications: toxophore-linker on Lys NH, sites not given
IC50 (nM), HT29 meso+ cells, MTT proliferation assay: 0.4 nM

B27: Example 110, conjugate of anti-mesothelin antibody MF-Ta (antibody, human IgG1, lambda, V domains shown)
VH: B2 VH
VL: B2 VL
modifications: toxophore-linker on Cys sulfur, sites not given
IC50 (nM), HT29 meso+ cells, MTT proliferation assay: 0.002 nM

B28: Example 97, conjugate of anti-mesothelin antibody MF-Ta (antibody, human IgG1, lambda, V domains shown)
VH: B2 VH
VL: B2 VL
modifications: toxophore-linker on Cys sulfur, sites not given
IC50 (nM), HT29 meso+ cells, MTT proliferation assay: 0.2 nM

B29: Example 77, conjugate of anti-mesothelin antibody MF-Ta (antibody, human IgG1, lambda, V domains shown)
VH: B2 VH
VL: B2 VL
modifications: toxophore-linker on Cys sulfur, sites not given
IC50 (nM), HT29 meso+ cells, MTT proliferation assay: 0.8 nM

B30: Example 102, conjugate of anti-mesothelin antibody MF-Ta (antibody, human IgG1, lambda, V domains shown)
VH: B2 VH
VL: B2 VL
modifications: toxophore-linker on Lys NH, sites not given
IC50 (nM), HT29 meso+ cells, MTT proliferation assay: 7.2 nM

B31: Example 114, conjugate of anti-mesothelin antibody MF-Ta (antibody, human IgG1, lambda, V domains shown)
VH: B2 VH
VL: B2 VL
modifications: toxophore-linker on Cys sulfur, sites not given
IC50 (nM), HT29 meso+ cells, MTT proliferation assay: 0.6 nM

B32: Example 89, conjugate of anti-mesothelin antibody MF-Ta (antibody, human IgG1, lambda, V domains shown)
VH: B2 VH
VL: B2 VL
modifications: toxophore-linker on Cys sulfur, sites not given
IC50 (nM), HT29 meso+ cells, MTT proliferation assay: 0.06 nM

B34: Example 107, conjugate of anti-mesothelin antibody MF-Ta (antibody, human IgG1, lambda, V domains shown)
VH: B2 VH
VL: B2 VL
modifications: toxophore-linker on Cys sulfur, sites not given
IC50 (nM), HT29 meso+ cells, MTT proliferation assay: 3 nM

B35: Example 75, conjugate of anti-mesothelin antibody MF-Ta (antibody, human IgG1, lambda, V domains shown)
VH: B2 VH
VL: B2 VL
modifications: toxophore-linker on Lys NH, sites not given
IC50 (nM), HT29 meso+ cells, MTT proliferation assay: 0.2 nM

B36: Example 98, conjugate of anti-mesothelin antibody MF-Ta (antibody, human IgG1, lambda, V domains shown)
VH: B2 VH
VL: B2 VL
modifications: toxophore-linker on Cys sulfur, sites not given
IC50 (nM), HT29 meso+ cells, MTT proliferation assay: 1.7 nM

B37: Example 106, conjugate of anti-mesothelin antibody MF-Ta (antibody, human IgG1, lambda, V domains shown)
VH: B2 VH
VL: B2 VL
modifications: toxophore-linker on Cys sulfur, sites not given
IC50 (nM), HT29 meso+ cells, MTT proliferation assay: 0.8 nM

B39: Example 108, conjugate of anti-mesothelin antibody MF-Ta (antibody, human IgG1, lambda, V domains shown)
VH: B2 VH
VL: B2 VL
modifications: toxophore-linker on Cys sulfur, sites not given
IC50 (nM), HT29 meso+ cells, MTT proliferation assay: 0.74 nM

B40: Example 105, conjugate of anti-mesothelin antibody MF-Ta (antibody, human IgG1, lambda, V domains shown)
VH: B2 VH
VL: B2 VL
modifications: toxophore-linker on Lys NH, sites not given
IC50 (nM), HT29 meso+ cells, MTT proliferation assay: 0.6 nM

B42: Example 82, conjugate of anti-mesothelin antibody MF-Ta (antibody, human IgG1, lambda, V domains shown)
VH: B2 VH
VL: B2 VL
modifications: toxophore-linker on Cys sulfur, sites not given
IC50 (nM), HT29 meso+ cells, MTT proliferation assay: 24 nM

B43: Example 83, conjugate of anti-mesothelin antibody MF-Ta (antibody, human IgG1, lambda, V domains shown)
VH: B2 VH
VL: B2 VL
modifications: toxophore-linker on Cys sulfur, sites not given
IC50 (nM), HT29 meso+ cells, MTT proliferation assay: 0.3 nM

B44: Example 91, conjugate of anti-mesothelin antibody MF-Ta (antibody, human IgG1, lambda, V domains shown)
VH: B2 VH
VL: B2 VL
modifications: toxophore-linker on Cys sulfur, sites not given
IC50 (nM), HT29 meso+ cells, MTT proliferation assay: 0.35 nM

Continued, values first:

IC50 (nM), HT29 meso+ cells, MTT proliferation assay: 0.6 nM
B1: Example 71, conjugate of anti-mesothelin antibody MF-Ta (antibody, human IgG1, lambda, V domains shown)
VH: B2 VH
VL: B2 VL
modifications: toxophore-linker on Cys sulfur, sites not given

IC50 (nM), HT29 meso+ cells, MTT proliferation assay: 0.01 nM
B3: Example 88, conjugate of anti-mesothelin antibody MF-Ta (antibody, human IgG1, lambda, V domains shown)
VH: B2 VH
VL: B2 VL
modifications: toxophore-linker on Cys sulfur, sites not given

IC50 (nM), HT29 meso+ cells, MTT proliferation assay: 0.5 nM
B9: Example 79, conjugate of anti-mesothelin antibody MF-Ta (antibody, human IgG1, lambda, V domains shown)
VH: B2 VH
VL: B2 VL
modifications: toxophore-linker on Cys sulfur, sites not given

IC50 (nM), HT29 meso+ cells, MTT proliferation assay: 6 nM
B11: Example 84, conjugate of anti-mesothelin antibody MF-Ta (antibody, human IgG1, lambda, V domains shown)
VH: B2 VH
VL: B2 VL
modifications: toxophore-linker on Lys NH, sites not given

IC50 (nM), HT29 meso+ cells, MTT proliferation assay: 3 nM
B12: Example 101, conjugate of anti-mesothelin antibody MF-Ta (antibody, human IgG1, lambda, V domains shown)
VH: B2 VH
VL: B2 VL
modifications: toxophore-linker on Cys sulfur, sites not given

IC50 (nM), HT29 meso+ cells, MTT proliferation assay: 0.018 nM
B15: Example 112, conjugate of anti-mesothelin antibody MF-Ta (antibody, human IgG1, lambda, V domains shown)
VH: B2 VH
VL: B2 VL
modifications: toxophore-linker on Cys sulfur, sites not given

IC50 (nM), HT29 meso+ cells, MTT proliferation assay: 0.2 nM
B16: Example 85, conjugate of anti-mesothelin antibody MF-Ta (antibody, human IgG1, lambda, V domains shown)
VH: B2 VH
VL: B2 VL
modifications: toxophore-linker on Cys sulfur, sites not given

IC50 (nM), HT29 meso+ cells, MTT proliferation assay: 0.05 nM
B19: Example 72, conjugate of anti-mesothelin antibody MF-Ta (antibody, human IgG1, lambda, V domains shown)
VH: B2 VH
VL: B2 VL
modifications: toxophore-linker on Cys sulfur, sites not given

IC50 (nM), HT29 meso+ cells, MTT proliferation assay: 0.9 nM
B22: Example 87, conjugate of anti-mesothelin antibody MF-Ta (antibody, human IgG1, lambda, V domains shown)
VH: B2 VH
VL: B2 VL
modifications: toxophore-linker on Lys NH, sites not given

IC50 (nM), HT29 meso+ cells, MTT proliferation assay: 0.6 nM
B24: Example 94, conjugate of anti-mesothelin antibody MF-Ta (antibody, human IgG1, lambda, V domains shown)
VH: B2 VH
VL: B2 VL
modifications: toxophore-linker on Cys sulfur, sites not given

IC50 (nM), HT29 meso+ cells, MTT proliferation assay: 0.013 nM
B26: Example 95, conjugate of anti-mesothelin antibody MF-Ta (antibody, human IgG1, lambda, V domains shown)
VH: B2 VH
VL: B2 VL
modifications: toxophore-linker on Cys sulfur, sites not given

IC50 (nM), HT29 meso+ cells, MTT proliferation assay: 38 nM
B33: Example 92, conjugate of anti-mesothelin antibody MF-Ta (antibody, human IgG1, lambda, V domains shown)
VH: B2 VH
VL: B2 VL
modifications: toxophore-linker on Cys sulfur, sites not given

IC50 (nM), HT29 meso+ cells, MTT proliferation assay: 0.27 nM
B38: Example 99, conjugate of anti-mesothelin antibody MF-Ta (antibody, human IgG1, lambda, V domains shown)
VH: B2 VH
VL: B2 VL
modifications: toxophore-linker on Cys sulfur, sites not given

IC50 (nM), HT29 meso+ cells, MTT proliferation assay: 1.1 nM
B41: Example 78, conjugate of anti-mesothelin antibody MF-Ta (antibody, human IgG1, lambda, V domains shown)
VH: B2 VH
VL: B2 VL
modifications: toxophore-linker on Cys sulfur, sites not given
